Test results reported in the supplement of paper PMC7877785.
± gives the uncertainty stated by the source.

Test: self-splicing fitness, log relative to wild type (ln ratio); higher = more splicing; Tetrahymena group I intron in knt gene, E. coli kanamycin selection, DiMSum; sequences stand for … in CUCUCU…GGAGGGAAAAGUUAUCAGGCAUGCACCUGGUAGCUAGUCUUUAAACCAAUAGAUUGCAUCGGUUUAAAAGGCAAGACCGUCAAAUUGCGGGAAAGGGGUCAACAGCCGUUCAGUACCAAGUCUCAGGGGAAACUUUGAGAUGGCCUUGCAAAGGGUAUGGUAAUAAGCUGACGGACAUGGUCCUAACCACGCAGCCAAGUCCUAAGUCAACAGAUCUUCUGUUGAUAUGGAUGCAGUUCACAGACUAAAUGUCGGUCGGGGAAGAUGUAUUCUUCUCAUAAGAUAUAGUCGGACCUCUCCUUAAUGGGAGCUAGCGGAUGAAGUGAUGCAACACUGGAGCCGCUGGGAACUAAUUUGUAUGCGAAAGUAUAUUGAUUAGUUUUGGAGUACUCGUGGUCG
Procedure, shortened: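 A randomised library covering all eight P1ex-region intron nucleotides was built with the intron in the knt kanamycin-resistance gene on pET-22b(+) and held in E. coli BL21(DE3). Cells were grown overnight at 37°C or 30°C on LB agar, with or without 25 μg/mL kanamycin, plus 100 μg/mL carbenicillin, 50 μM IPTG and 0.2% rhamnose, and pooled colonies were amplicon-sequenced on an Illumina HiSeq 2500. DiMSum fitness is the error-weighted combination of wild-type-normalised replicate fold changes, kanamycin versus none.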

## CCAUAGCAAUAUUACGCGUC
30 °C
  self-splicing fitness (ln): -3.04 ± 0.33
37 °C
  self-splicing fitness (ln): -4.21 ± 0.46

## CCAUAGCAAUAUUACGCUAA
30 °C
  self-splicing fitness (ln): -3.38 ± 0.22
37 °C
  self-splicing fitness (ln): -2.75 ± 0.32

## CCAUAGCAAUAUUACGCUAG
30 °C
  self-splicing fitness (ln): -3.8 ± 0.47
37 °C
  self-splicing fitness (ln): -1.82 ± 0.23

## CCAUAGCAAUAUUACGCUCC
30 °C
  self-splicing fitness (ln): -2.97 ± 0.49

## CCAUAGCAAUAUUACGGCAA
30 °C
  self-splicing fitness (ln): -3.37 ± 0.28
37 °C
  self-splicing fitness (ln): -2.9 ± 0.3

## CCAUAGCAAUAUUACGGCGA
30 °C
  self-splicing fitness (ln): -2.03 ± 0.26
37 °C
  self-splicing fitness (ln): -1.92 ± 0.23

## CCAUAGCAAUAUUACGGCUU
30 °C
  self-splicing fitness (ln): -3.97 ± 0.31
37 °C
  self-splicing fitness (ln): -2.19 ± 0.2

## CCAUAGCAAUAUUACGGGAU
30 °C
  self-splicing fitness (ln): -3.65 ± 0.23
37 °C
  self-splicing fitness (ln): -2.86 ± 0.24

## CCAUAGCAAUAUUACGGUUG
30 °C
  self-splicing fitness (ln): -1.43 ± 0.082
37 °C
  self-splicing fitness (ln): -0.827 ± 0.12

## CCAUAGCAAUAUUACGUAUU
30 °C
  self-splicing fitness (ln): -3.88 ± 0.19
37 °C
  self-splicing fitness (ln): -2.64 ± 0.21

## CCAUAGCAAUAUUACGUGCA
30 °C
  self-splicing fitness (ln): -2.77 ± 0.19
37 °C
  self-splicing fitness (ln): -3.02 ± 0.24

## CCAUAGCAAUAUUACGUUCG
30 °C
  self-splicing fitness (ln): -0.579 ± 0.08
37 °C
  self-splicing fitness (ln): -0.674 ± 0.1

## CCCAAGCAAUAUUACGAAAA
30 °C
  self-splicing fitness (ln): -2.96 ± 0.21
37 °C
  self-splicing fitness (ln): -2.1 ± 0.22

## CCCAAGCAAUAUUACGAAAU
30 °C
  self-splicing fitness (ln): -3.19 ± 0.25
37 °C
  self-splicing fitness (ln): -2.35 ± 0.18

## CCCAAGCAAUAUUACGAACG
30 °C
  self-splicing fitness (ln): -3.72 ± 0.25
37 °C
  self-splicing fitness (ln): -3.46 ± 0.2

## CCCAAGCAAUAUUACGAAUC
30 °C
  self-splicing fitness (ln): -2.81 ± 0.24
37 °C
  self-splicing fitness (ln): -2.36 ± 0.27

## CCCAAGCAAUAUUACGAAUG
30 °C
  self-splicing fitness (ln): -3.88 ± 0.22
37 °C
  self-splicing fitness (ln): -2.8 ± 0.18

## CCCAAGCAAUAUUACGACCU
30 °C
  self-splicing fitness (ln): -3.38 ± 0.26
37 °C
  self-splicing fitness (ln): -2.44 ± 0.25

## CCCAAGCAAUAUUACGCAAU
30 °C
  self-splicing fitness (ln): -4.46 ± 0.31
37 °C
  self-splicing fitness (ln): -1.16 ± 0.17

## CCCAAGCAAUAUUACGCACC
37 °C
  self-splicing fitness (ln): -2.31 ± 0.33

## CCCAAGCAAUAUUACGCAGA
30 °C
  self-splicing fitness (ln): -2.74 ± 0.21
37 °C
  self-splicing fitness (ln): -2.72 ± 0.14

## CCCAAGCAAUAUUACGCAUC
37 °C
  self-splicing fitness (ln): -1.32 ± 0.21

## CCCAAGCAAUAUUACGCGAU
30 °C
  self-splicing fitness (ln): -3.93 ± 0.21
37 °C
  self-splicing fitness (ln): -2.5 ± 0.19

## CCCAAGCAAUAUUACGCGCC
37 °C
  self-splicing fitness (ln): -1.59 ± 0.34

## CCCAAGCAAUAUUACGCGGA
30 °C
  self-splicing fitness (ln): -1.6 ± 0.093
37 °C
  self-splicing fitness (ln): -0.459 ± 0.097

## CCCAAGCAAUAUUACGCUAC
30 °C
  self-splicing fitness (ln): -4.17 ± 0.39
37 °C
  self-splicing fitness (ln): -3.04 ± 0.38

## CCCAAGCAAUAUUACGGAAU
30 °C
  self-splicing fitness (ln): -3.88 ± 0.26
37 °C
  self-splicing fitness (ln): -2.94 ± 0.22

## CCCAAGCAAUAUUACGGGAU
30 °C
  self-splicing fitness (ln): -3.41 ± 0.096
37 °C
  self-splicing fitness (ln): -2.47 ± 0.12

## CCCAAGCAAUAUUACGGGUG
30 °C
  self-splicing fitness (ln): -3.36 ± 0.093
37 °C
  self-splicing fitness (ln): -1.79 ± 0.077

## CCCAAGCAAUAUUACGGUGC
30 °C
  self-splicing fitness (ln): -3.6 ± 0.27
37 °C
  self-splicing fitness (ln): -2.26 ± 0.22

## CCCAAGCAAUAUUACGGUGG
30 °C
  self-splicing fitness (ln): -3.69 ± 0.15
37 °C
  self-splicing fitness (ln): -2.71 ± 0.15

## CCCAAGCAAUAUUACGUAAC
30 °C
  self-splicing fitness (ln): -3.6 ± 0.18
37 °C
  self-splicing fitness (ln): -2.52 ± 0.21

## CCCAAGCAAUAUUACGUAGA
30 °C
  self-splicing fitness (ln): -3.94 ± 0.17
37 °C
  self-splicing fitness (ln): -3.16 ± 0.18

## CCCAAGCAAUAUUACGUCAG
30 °C
  self-splicing fitness (ln): -4.12 ± 0.17
37 °C
  self-splicing fitness (ln): -1.97 ± 0.13

## CCCAAGCAAUAUUACGUCAU
30 °C
  self-splicing fitness (ln): -2.95 ± 0.14
37 °C
  self-splicing fitness (ln): -2.74 ± 0.13

## CCCAAGCAAUAUUACGUCCU
30 °C
  self-splicing fitness (ln): -3.99 ± 0.3
37 °C
  self-splicing fitness (ln): -2.93 ± 0.29

## CCCAAGCAAUAUUACGUCGG
30 °C
  self-splicing fitness (ln): -3.63 ± 0.12
37 °C
  self-splicing fitness (ln): -2.51 ± 0.14

## CCCAAGCAAUAUUACGUUAA
30 °C
  self-splicing fitness (ln): -3.68 ± 0.17
37 °C
  self-splicing fitness (ln): -2.62 ± 0.14

## CCCAAGCAAUAUUACGUUAC
30 °C
  self-splicing fitness (ln): -4.13 ± 0.15
37 °C
  self-splicing fitness (ln): -2.37 ± 0.13

## CCCAAGCAAUAUUACGUUGU
30 °C
  self-splicing fitness (ln): -3.3 ± 0.095
37 °C
  self-splicing fitness (ln): -2.43 ± 0.11

## CCCCAGCAAUAUUACGAAAA
30 °C
  self-splicing fitness (ln): -3.6 ± 0.26
37 °C
  self-splicing fitness (ln): -2.57 ± 0.26

## CCCCAGCAAUAUUACGAAGG
30 °C
  self-splicing fitness (ln): -4.06 ± 0.17
37 °C
  self-splicing fitness (ln): -2.51 ± 0.15

## CCCCAGCAAUAUUACGAAUG
30 °C
  self-splicing fitness (ln): -4.11 ± 0.21
37 °C
  self-splicing fitness (ln): -2.3 ± 0.15

## CCCCAGCAAUAUUACGACGU
30 °C
  self-splicing fitness (ln): -3.45 ± 0.21
37 °C
  self-splicing fitness (ln): -2.9 ± 0.19

## CCCCAGCAAUAUUACGAUAC
30 °C
  self-splicing fitness (ln): -3.82 ± 0.27
37 °C
  self-splicing fitness (ln): -2.85 ± 0.28

## CCCCAGCAAUAUUACGAUUU
30 °C
  self-splicing fitness (ln): -3.43 ± 0.14
37 °C
  self-splicing fitness (ln): -3.51 ± 0.25

## CCCCAGCAAUAUUACGCAGG
30 °C
  self-splicing fitness (ln): -3.34 ± 0.12
37 °C
  self-splicing fitness (ln): -2.52 ± 0.16

## CCCCAGCAAUAUUACGCCGA
37 °C
  self-splicing fitness (ln): -2.04 ± 0.25

## CCCCAGCAAUAUUACGCGAC
30 °C
  self-splicing fitness (ln): -3.37 ± 0.21
37 °C
  self-splicing fitness (ln): -2.49 ± 0.25
